In the supplement of paper PMC11780869:

These sequences were tested on Bacillus subtilis (assay: cleaved RNA product abundance (RNA/gDNA barcode ratio) relative to median wild-type variant (ratio to wild type); higher = more accumulation of the downstream cleavage product). Conditions: experiment (reporter, strain, medium): exp 2b: truncated aprE reporter, strain BJT200; cleavage site: cggR-gapA (positions -7 to +36 mutated).
Procedure, shortened: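 Sequencing of barcodes from gel-selected, reverse-transcribed cleaved RNA and from genomic DNA, with UMI collapsing, yielded a per-construct RNA:gDNA ratio. Scaled to the median construct with the unmutated site, this ratio is the cleaved product abundance. The barcoded reporters (truncated aprE or tetM mRNAs with mutagenized RNase Y cleavage-site windows) were integrated into the B. subtilis chromosome, and cultures grew in LB at 37°C from OD600 0.0003 to 0.3.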

Sequence	cleaved RNA product abundance
ACAGACGAAGGAGCCGCAAAGAAGTTATTAAGGGATGAATAACTCCTCAATATAAATATCTCTCACTTATTTAAA	0.14
ACAGACGAAGGAGCCGCAAAGAACTTATTAATGGATGAATAATCCCTCAATATAAATATCTCTCACTTATTTAAA	0.102
ACAGACGAAGGAGCCGCAATGAAGTTATTAAGAGATGAATAATCCCTCAATATAAATATCTCTCACTTATTTAAA	0.131
ACAGACGAAGGAGCCGCAAAGAAGTTATTATGGGATGAATAATCCCTCCATATAAATATCTCTCACTTATTTAAA	0.361
ACAGACGAAGGAGCCGCAAAGAAGTTATAAAGGGATGAATAATCCCTCAATATAAAAATCTCTCACTTATTTAAA	0.338
ACAGACGAAGGAGCCGCAAAGAAGTTATTAAGGGATTAATAATCCCTCAATATAAATTTCTCTCACTTATTTAAA	0.686
ACAGACGAAGGAGCCGCAAAGAATTTATTAAGCGATGAATAATCCCTCAATATAAATATCTCTCACTTATTTAAA	0.116
ACAGACGAAGGAGCCGCAAAGAAGTTATTAAGGGATAAATAATCACTCAATATAAATATCTCTCACTTATTTAAA	0.0853
ACAGACGAAGGAGCCGCAAAGGAGTTATTAAGGGAAGAATAATCCCTCAATATAAATATCTCTCACTTATTTAAA	0.495
ACAGACGAAGGAGCCGCAAAGAAGTTATTAAGGGATAAATAATCCCTCAATATAAATGTCTCTCACTTATTTAAA	0.46

Same assay, conditions: experiment (reporter, strain, medium): exp 4a: truncated aprE reporter, strain BJT201 with 2% xylose (RNase J1 expressed); cleavage site: cggR-gapA (positions -7 to +36 mutated)

Sequence	cleaved RNA product abundance
ACAGACGAAGGAGCCGCAAAGAAGTTATTAACGGATGAATAATCCCTCAATAAAAATATCTCTCACTTATTTAAA	0.08
ACAGACGAAGGAGCCGCAAAGAAGTTATTAAGGGATGAATATTCGCTCAATATAAATATCTCTCACTTATTTAAA	0.086
ACAGACGAAGGAGCCGCAAAGAAGTTATTAAGGGATGAATAACTCCTCAATATAAATATCTCTCACTTATTTAAA	0.149
ACAGACGAAGGAGCCGCAAAGAACTTATTAATGGATGAATAATCCCTCAATATAAATATCTCTCACTTATTTAAA	0.142
ACAGACGAAGGAGCCGCAAAGAAGTTATAAAGGGATGAATAATCCCTCAATATAAATAACTCTCACTTATTTAAA	0.424
ACAGACGAAGGAGCCGCAAAGAAGTTATTAAGGGGTCAATAATCCCTCAATATAAATATCTCTCACTTATTTAAA	0.611
ACAGACGAAGGAGCCGCAATGAAGTTATTAAGAGATGAATAATCCCTCAATATAAATATCTCTCACTTATTTAAA	0.204
ACAGACGAAGGAGCCGCAAAGAAGTTATTAAGGGATGAATAATCCCGCATTATAAATATCTCTCACTTATTTAAA	0.101
ACAGACGAAGGAGCCGCAAAGAAGTTACTAAGGGAAGAATAATCCCTCAATATAAATATCTCTCACTTATTTAAA	0.138
ACAGACGAAGGAGCCGCAAAGAAGATATTAAGGGATGAATAATCCTTCAATATAAATATCTCTCACTTATTTAAA	0.762
ACAGACGAAGGAGCCGCAAAGAAGTTATTAAGGGATGAATAATCTCTCAATATAAATTTCTCTCACTTATTTAAA	0.708
ACAGACGAAGGAGCCGCAAAGAAGTAATTAAGGGATGAATAATCCCTCATTATAAATATCTCTCACTTATTTAAA	0.278
ACAGACGAAGGAGCCGCAAAGAAGTTATTAACGGATGAATAGTCCCTCAATATAAATATCTCTCACTTATTTAAA	0.174
ACAGACGAAGGAGCCGCAAAGAAGTTATTAAGGGATAAATAATCCCTCAACATAAATATCTCTCACTTATTTAAA	0.251
ACAGACGAAGGAGCCGCAAGGAAGTTATTAAGGAATGAATAATCCCTCAATATAAATATCTCTCACTTATTTAAA	0.115
ACAGACGAAGGAGCCGCAAAGAAGTTATTAAGGGATTAATAATCCCTCAATATAAATTTCTCTCACTTATTTAAA	0.57
ACAGACGAAGGAGCCGCAAAGAAGTTATTAAGGGATGAATAACCCCTCAATCTAAATATCTCTCACTTATTTAAA	0.0932
ACAGACGAAGGAGCCGCAATGAAGTTATTAAGGGATGAATAATACCTCAATATAAATATCTCTCACTTATTTAAA	0.138
ACAGACGAAGGAGCCGCAAAGACGTTATTAAGGGATGAATAATCCCCCAATATAAATATCTCTCACTTATTTAAA	0.226
ACAGACGAAGGAGCCGCAAAGAATTTATTAAGCGATGAATAATCCCTCAATATAAATATCTCTCACTTATTTAAA	0.122
ACAGACGAAGGAGCCGCAAAGAAGTTATAAAGGGATGAATAATCCCTAAATATAAATATCTCTCACTTATTTAAA	0.626
ACAGACGAAGGAGCCGCAAAGAAGTTATTTAGGGATGAATAATACCTCAATATAAATATCTCTCACTTATTTAAA	0.141
ACAGACGAAGGAGCCGCAAAGAAGTTATTAAGGGATGAATATTCACTCAATATAAATATCTCTCACTTATTTAAA	0.18
ACAGACGAAGGAGCCGCAAAGAAGTTATTAAGGGATAAATAATCACTCAATATAAATATCTCTCACTTATTTAAA	0.104
ACAGACGAAGGAGCCGCAAAGAAGTTATTAAGGGATAAATAATCCCTCAATATAAATGTCTCTCACTTATTTAAA	0.539
ACAGACGAAGGAGCCGCAAAGTAGTTATTAAGGGATGAATAATCCCTCAATATAATTATCTCTCACTTATTTAAA	0.437
ACAGACGAAGGAGCCGCAAAGAAATTATTACGGGATGAATAATCCCTCAATATAAATATCTCTCACTTATTTAAA	0.396

Same assay, conditions: experiment (reporter, strain, medium): exp 8a: truncated aprE reporter, strain BJT201 with 2% xylose (RNase J1 expressed); cleavage site: glnRA (positions -5 to +31 mutated)

Sequence	cleaved RNA product abundance
CGACATGTCCCGCTTCTTTCATTAATCCGTTAGCAACCGTTTTTCTATATACATTTACCTTTTAAGAGGAGGAAT	0.384
CGACATGTCCCGCTTCTTTCATTAATCCGTTACCAACTGTTTTGCTATATACATCTACCTTTTAAGAGGAGGAAT	0.23
CGACATGTCCCGCTTCTTTCATTAATCCGTTAGCAACTGTTATGCTATATAGATTTACCTTTTAAGAGGAGGAAT	1.29
CGACATGTCCCGCTTCTTTCATTAATCAGTTAGCAACTGTTTTGCTATATACATTTACCATTAAGAGGAGGAATT	1.4
CGACATGTCCCGCTTCTTTCATTAATCCGTTAACAACTGTTTTGCTATATACATTTACCATTTAAGAGGAGGAAT	0.176
CGACATGTCCCGCTTCTTTCATTAATCCGTTTGCAACTGTTTTGCTATATACATTTACATTTTAAGAGGAGGAAT	0.626
CGACATGTCCCGCTTCTTTCATTAATCCGTTAACAACTGTTTTGCTATATACATTTGCATTTTAAGAGGAGGAAT	0.202
CGACATGTCCCGCTTCTTTCATTAATCCGATGGCAACTGTTTTGCTATATACATTTACCTTTTAAGAGGAGGAAT	0.74
CGACATGTCCCGCTTCTTTCATTATTCCGTTAGCAACTGTTTAGCTATATACATTTACCTTTTAAGAGGAGGAAT	0.706
CGACATGTCCCGCTTCTTTCATTAATCAGTTAACTTTTTTGCTATATATATTTACCTTTTAAGAGGAGGAATTTT	0.238
CGACATGTCCCGCTTCTTTCATTAATCCGTTAGCAACTGTTTTGCCATATACATTTACATTTTAAGAGGAGGAAT	0.355
CGACATGTCCCGCTTCTTTCATTAATCTGTTAGCAACAGTTTTGCTATATACATTTACCTTTTAAGAGGAGGAAT	0.686
CGACATGTCCCGCTTCTTTCATTAATCCATTAGCAACTGTTTTGCTATATATATTTACCTTTTAAGAGGAGGAAT	0.973
CGACATGTCCCGCTTCTTTCATTAATTCGTTAGCAACTGTTTTGCTATATACATGTACCTTTTAAGAGGAGGAAT	0.933
CGACATGTCCCGCTTCTTTCATTAATCCGATATCAACTGTTTTGCTATATACATTTACCTTTTAAGAGGAGGAAT	0.242
CGACATGTCCCGCTTCTTTCATTAATTCGTTAGCAACTGTTTTGCTATATACATTTAACTTTTAAGAGGAGGAAT	1.68
CGACATGTCCCGCTTCTTTCATTAATGCGTTAGCAACTATTTTGCTATATACATTTACCTTTTAAGAGGAGGAAT	1.28
CGACATGTCCCGCTTCTTTCATTAATCCGTTAGCAACTGTTTTGTTATAGACATTTACCTTTTAAGAGGAGGAAT	0.265
